Data on one molecule can be found in paper PMC10782944 (Science immunology, 2023).

Targets include PHOX2B/HLA-A*24:02/β2m (Homo sapiens, HLA-A*24:02, strain); ATG2A/HLA-A*24:02 (Homo sapiens, HLA-A*24:02, strain); GLB1 peptide/HLA-A*24:02 (Homo sapiens, HLA-A*24:02, strain).
Assay in all cases: SPR
On the technique in general: Surface plasmon resonance follows binding to a sensor surface in real time, without labels.

Assay [1] deals with CNGB3 peptide/HLA-A*24:02 (Homo sapiens, HLA-A*24:02, strain).

Usually Kd stands for a measure of binding affinity in units of concentration.

B1: peptide-centric CAR (PC-CAR) 10LH, single-chain fragment variable (scFv) (scFv, V domains shown)
V domain 1: EVQLLESGGGLVQPGGSLRLSCAASGFTFDSYAMSWVRQAPGKGLEWVSAISGYGGSTYYADSVKGRFTISRDNSKNTLYLQMNSLRAEDTAVYYCAKYTYFLDAFDIWGQGTMVTVSS
V domain 2: QSVLTQPPSVSVSPGQTASITCSGDSLGNKYACWYQQKPGQSPVLVIYQDSKRPSGIPERFSGSNSGNTATLTISGTQAMDEADYYCQAWDSSRGYTVVFGTGTKVTVS
Take B1: the values for the Kd with PHOX2B/HLA-A*24:02/β2m and with ATG2A/HLA-A*24:02 were 11 nM and 1000 nM, respectively. Also, the binding result (in assay [1]; with GLB1 peptide/HLA-A*24:02) was “binds” throughout.
